Assays:
[1] = Measurement of EAP combined with ALP and LrHP in plasma model solution containing contaminating amines; assay type: biochemical
Description: The reaction reagent (pH 8.0) shown in Table 2 was mixed in a 1.5 ml microtube at 4° C. and incubated at 37° C. for 2 minutes. In this case, 47 μl of LrHP was added (so that the final concentration is 1 mg/ml). […] The measurement was paused, 10 μl of alkaline phosphatase (25 U/ml) was added to the cuvette, mixed by pipetting, and immediately set in a spectrophotometer, and the absorbance at 555 nm was measured over time for 500 seconds.

[2] = Verification of EAP to EA conversion reaction by ALP, detected with LrHP (4-AA/TOOS/POD, absorbance at 555 nm); assay type: biochemical; conditions: 1 mM EAP, LrHP final 25 pg/ml, pH 8.0, 300 seconds
Description: A reagent for activity measurement of the following composition was prepared.
A sample containing 1 mM EA was mixed with the reaction reagent (pH 8.0) shown in Table 2 in a 1.5 ml microtube at 4° C. 2 μl of ALP (so that the final concentration is 5 U/ml) was added thereto and incubated at 37° C. for 5 minutes. 20 μl of LrHP (so that the final concentration is 25 pg/ml) was added thereto, mixed by pipetting, transferred to a cuvette, and immediately set in a spectrophotometer (U-3900, manufactured by Hitachi High-Tech Science Corporation), and the absorbance at 555 nm was measured over time for 300 seconds.
Similarly, a sample containing 1 mM EAP was used, and 2 μl of alkaline phosphatase (ALP) or water was added to the reaction reagent (pH 8.0) (so that the final concentration is 5 U/ml) and incubated at 37° C. for 5 minutes. Next, 20 μl of LrHP (so that the final concentration is 25 pg/ml) was added thereto, mixed by pipetting, transferred to a cuvette, and immediately set in a spectrophotometer, and the absorbance at 555 nm was measured over time for 300 seconds.
The time immediately after the addition of LrHP is set to 0 seconds from the start of the measurement. […] This linear increase in absorbance was similar to the tendency to increase in the case where EA was directly used as a substrate instead of acting phosphatase on EAP.

B1: LrHP: hypothetical protein (GenBank ID CDS02610.1), amino acid sequence SEQ ID NO: 11, derived from Lichtheimia ramosa; oxidase acting on EA (protein, listed as Lichtheimia ramosa)
chain: MSSSPIKPYPLDPLTADEIRRAAALIRETRGQDTTYVFNSLTLKEPSKQQMMSYLGWTNSPSHPKPVTIDREVFAVLIDRPSGLVHEMTVNLDKNQVTRWNKVEGRQPTVNVFEMLEAEREILKDERVKEQCRQLGINDMSMVFADPWGVGYHEIKGKRLVQALMYARTSPDDNQYAHPLDFNPLYDVNAKKVIDIIVSKRRNSSFDRPVIPMANHHFLPEHLGQDRLRKDIKPIEITQPQGVSFSIRDGHQLHWQKWDMHLSFNYREGLVINNLSYRDMDGTVRPIIYRMSLSEMVVPYANPYKPYNHKMAFDVGEYGLGNLTNSLELGCDCVGKICYLDATLSDLNGDPWQIPNAICIHEEDTGLLFKHTDYRTGKAHSARSRRLVISHIVTAANYDYGLYYYFYQDGTIQYEVKATGELNTQVLAADEDAAPYGTIVAPQVDAQHHQHLFSMRIDPMVDGPNNSVAEVDVVASDLPVGHPHNSIGNSFYPVTKVFNTTDEAKTMASIERHRSWKIINENKIHPYAKQPVGFKMMAHPTPPLLPKPGSIVYERAMFASKTLWVTPYNEEQRYPGGFYCYQSEPSENLGLPQWTKETQNVRDTDIVCWLNFGITHIPRVEDFPIMPIETCGVMLKPVNFFLGNPGIDIPPSTRQSTKSAYATEATCCRKNNL
[1]; LrHP final 1 mg/ml, EA 10.4 μM, β-alanine 29 μM, taurine 39.5 μM, EAP 1.5 μM, after 500 seconds
  elimination of EA in the sample: the EA in the sample was exhausted
[1]; water added instead of ALP, final EAP 1.5 μM
  change in absorbance at 555 nm after 500 seconds: No change in absorbance occurred
[2]; ALP added (final 5 U/ml, 37° C., 5 minutes)
  change in absorbance at 555 nm (EAP oxidization activity): increase in absorbance with time was observed
[2]; ALP not added
  change in absorbance at 555 nm (EAP oxidization activity): no change in absorbance was observed
